According to US10830762 (dated 2020):

Assays:
[1] = biological target: T1, DDB1 in DF15R cell extracts (UniProt Q16531 2-1140); assay: immunoprecipitation and Western blot from DF15R cell extracts (FIG. 24C)
T1 construct: Co-immunoprecipitated with FLAG-tagged CRBN proteins from cell extracts

human GSPT1 G575N = biological target: T2, human GSPT1 G575N (human, UniProt P15170-3 139-637, limits assumed); assay: Compound C-induced in vitro binding of GSPT1 to CRBN (FIG. 31C)
T2 construct: also called G575N mutation in GSPT1
T2 sequence (P15170 whole entry G437N): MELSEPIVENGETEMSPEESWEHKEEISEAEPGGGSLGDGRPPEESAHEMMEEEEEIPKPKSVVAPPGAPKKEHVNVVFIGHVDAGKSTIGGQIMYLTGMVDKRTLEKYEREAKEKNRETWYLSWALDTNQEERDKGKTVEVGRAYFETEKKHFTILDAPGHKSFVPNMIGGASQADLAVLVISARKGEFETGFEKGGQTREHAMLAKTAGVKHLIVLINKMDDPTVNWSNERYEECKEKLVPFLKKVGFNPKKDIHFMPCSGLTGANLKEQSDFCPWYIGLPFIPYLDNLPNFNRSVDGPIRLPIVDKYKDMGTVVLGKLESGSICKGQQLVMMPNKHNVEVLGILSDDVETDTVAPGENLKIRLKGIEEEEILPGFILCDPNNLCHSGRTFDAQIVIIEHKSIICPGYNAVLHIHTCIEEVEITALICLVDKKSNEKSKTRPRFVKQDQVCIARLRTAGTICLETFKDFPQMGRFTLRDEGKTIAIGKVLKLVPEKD

full-length human GSPT1 = biological target: T3, full-length human GSPT1 (human, UniProt P15170 1-499); assay: CRBN immunoprecipitation in the presence of vehicle or Compound C (FIG. 34A)
T3 construct: mature; limits unknown; also called hGSPT1
T3 sequence (P15170 other isoform, or with tags, fused parts or gaps limits assumed): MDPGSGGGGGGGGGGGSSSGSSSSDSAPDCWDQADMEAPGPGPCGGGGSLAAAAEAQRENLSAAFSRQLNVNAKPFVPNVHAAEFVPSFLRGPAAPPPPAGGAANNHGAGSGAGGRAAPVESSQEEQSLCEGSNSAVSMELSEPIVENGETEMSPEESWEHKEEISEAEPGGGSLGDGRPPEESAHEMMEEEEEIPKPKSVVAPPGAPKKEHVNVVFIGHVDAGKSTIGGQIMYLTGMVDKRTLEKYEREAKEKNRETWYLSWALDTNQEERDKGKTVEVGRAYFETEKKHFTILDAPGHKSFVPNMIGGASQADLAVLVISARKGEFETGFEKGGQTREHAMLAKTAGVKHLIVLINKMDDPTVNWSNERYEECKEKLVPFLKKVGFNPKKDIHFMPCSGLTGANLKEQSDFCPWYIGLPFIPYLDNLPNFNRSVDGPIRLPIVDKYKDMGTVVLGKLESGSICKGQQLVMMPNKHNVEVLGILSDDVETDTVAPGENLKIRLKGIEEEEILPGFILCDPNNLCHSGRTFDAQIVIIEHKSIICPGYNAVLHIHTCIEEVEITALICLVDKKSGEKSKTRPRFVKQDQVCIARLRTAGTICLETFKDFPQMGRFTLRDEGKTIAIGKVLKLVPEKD

T1 sequence (Q16531 2-1140 limits assumed): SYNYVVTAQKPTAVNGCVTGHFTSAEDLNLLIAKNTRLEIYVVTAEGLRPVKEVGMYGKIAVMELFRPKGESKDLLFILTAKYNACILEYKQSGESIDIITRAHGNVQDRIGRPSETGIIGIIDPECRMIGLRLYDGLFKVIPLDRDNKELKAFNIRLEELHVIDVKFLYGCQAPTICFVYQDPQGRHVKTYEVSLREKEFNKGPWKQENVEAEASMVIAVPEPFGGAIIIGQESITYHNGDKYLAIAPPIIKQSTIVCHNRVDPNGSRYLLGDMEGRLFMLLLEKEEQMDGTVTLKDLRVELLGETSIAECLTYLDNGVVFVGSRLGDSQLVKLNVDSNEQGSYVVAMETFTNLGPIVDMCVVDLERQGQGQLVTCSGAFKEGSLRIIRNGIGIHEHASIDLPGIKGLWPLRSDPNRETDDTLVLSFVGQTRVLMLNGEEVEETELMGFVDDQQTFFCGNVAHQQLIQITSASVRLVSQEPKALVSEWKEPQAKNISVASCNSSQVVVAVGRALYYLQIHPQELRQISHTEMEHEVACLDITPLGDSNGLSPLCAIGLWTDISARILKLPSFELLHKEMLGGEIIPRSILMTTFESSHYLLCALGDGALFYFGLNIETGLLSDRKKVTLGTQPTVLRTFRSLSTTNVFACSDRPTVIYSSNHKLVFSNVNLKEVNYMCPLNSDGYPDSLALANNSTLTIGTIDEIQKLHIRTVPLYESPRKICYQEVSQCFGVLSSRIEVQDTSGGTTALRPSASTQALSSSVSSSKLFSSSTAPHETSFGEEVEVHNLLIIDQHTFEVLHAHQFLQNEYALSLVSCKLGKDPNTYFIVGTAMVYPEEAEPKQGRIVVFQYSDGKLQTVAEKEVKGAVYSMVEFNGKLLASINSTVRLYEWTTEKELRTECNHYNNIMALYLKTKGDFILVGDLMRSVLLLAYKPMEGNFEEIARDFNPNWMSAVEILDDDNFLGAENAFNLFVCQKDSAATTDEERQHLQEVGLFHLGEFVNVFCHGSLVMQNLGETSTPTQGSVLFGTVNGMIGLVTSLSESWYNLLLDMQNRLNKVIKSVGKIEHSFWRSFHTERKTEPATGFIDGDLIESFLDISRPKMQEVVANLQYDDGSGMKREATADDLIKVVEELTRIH

Row | Binder | binding result [1] | binding result (full-length human GSPT1) | other results
1 | full length CRBN W386A (CRBN^W386A), FLAG-tagged, re-expressed in DF15R cells (other, human, UniProt Q96SW2 1-442, looked up, mature; not shown: FLAG tag) MAGEGDQQDAAHNMGNHLPLLPAESEEEDEMEVEDQDSKEAKKPNIINFDTSLPTSHTYLGADMEEFHGRTLHDDDSCQVIPVLPQVMMILIPGQTLPLQLFHPQEVSMVRNLIQKDRTFAVLAYSNVQEREAQFGTTAEIYAYREEQDFGIEIVKVKAIGRQRFKVLELRTQSDGIQQAKVQILPECVLPSTMSAVQLESLNKCQIFPSKPVSREDQCSYKWWQKYQKRKFHCANLTSWPRWLYSLYDAETLMDRIKKQLREWDENLKDDSLPSNPIDFSYRVAACLPIDDVLRIQLLKIGSAIQRLRCELDIMNKCTSLCCKQCQETEITTKNEIFSLSLCGPMAAYVNPHGYVHETLTVYKACNLNLIGRPSTEHSWFPGYAATVAQCKICASHIGWKFTATKKDMSPQKFWGLTRSALLPTIPDTEDEISPDKVILCL | binds | – | –
2 | full length CRBN W400A (CRBN^W400A), FLAG-tagged, re-expressed in DF15R cells (other, human, UniProt Q96SW2 1-442, looked up, mature; not shown: FLAG tag) MAGEGDQQDAAHNMGNHLPLLPAESEEEDEMEVEDQDSKEAKKPNIINFDTSLPTSHTYLGADMEEFHGRTLHDDDSCQVIPVLPQVMMILIPGQTLPLQLFHPQEVSMVRNLIQKDRTFAVLAYSNVQEREAQFGTTAEIYAYREEQDFGIEIVKVKAIGRQRFKVLELRTQSDGIQQAKVQILPECVLPSTMSAVQLESLNKCQIFPSKPVSREDQCSYKWWQKYQKRKFHCANLTSWPRWLYSLYDAETLMDRIKKQLREWDENLKDDSLPSNPIDFSYRVAACLPIDDVLRIQLLKIGSAIQRLRCELDIMNKCTSLCCKQCQETEITTKNEIFSLSLCGPMAAYVNPHGYVHETLTVYKACNLNLIGRPSTEHSWFPGYAWTVAQCKICASHIGAKFTATKKDMSPQKFWGLTRSALLPTIPDTEDEISPDKVILCL | binds | – | –
3 | human WT CRBN (other, UniProt Q96SW2 1-442, looked up, also called cereblon; hCRBN) MAGEGDQQDAAHNMGNHLPLLPAESEEEDEMEVEDQDSKEAKKPNIINFDTSLPTSHTYLGADMEEFHGRTLHDDDSCQVIPVLPQVMMILIPGQTLPLQLFHPQEVSMVRNLIQKDRTFAVLAYSNVQEREAQFGTTAEIYAYREEQDFGIEIVKVKAIGRQRFKVLELRTQSDGIQQAKVQILPECVLPSTMSAVQLESLNKCQIFPSKPVSREDQCSYKWWQKYQKRKFHCANLTSWPRWLYSLYDAETLMDRIKKQLREWDENLKDDSLPSNPIDFSYRVAACLPIDDVLRIQLLKIGSAIQRLRCELDIMNKCTSLCCKQCQETEITTKNEIFSLSLCGPMAAYVNPHGYVHETLTVYKACNLNLIGRPSTEHSWFPGYAWTVAQCKICASHIGWKFTATKKDMSPQKFWGLTRSALLPTIPDTEDEISPDKVILCL | – | – | binding result (human GSPT1 G575N): no binding
4 | human CRBN E377A (other, UniProt Q96SW2 1-442, looked up) MAGEGDQQDAAHNMGNHLPLLPAESEEEDEMEVEDQDSKEAKKPNIINFDTSLPTSHTYLGADMEEFHGRTLHDDDSCQVIPVLPQVMMILIPGQTLPLQLFHPQEVSMVRNLIQKDRTFAVLAYSNVQEREAQFGTTAEIYAYREEQDFGIEIVKVKAIGRQRFKVLELRTQSDGIQQAKVQILPECVLPSTMSAVQLESLNKCQIFPSKPVSREDQCSYKWWQKYQKRKFHCANLTSWPRWLYSLYDAETLMDRIKKQLREWDENLKDDSLPSNPIDFSYRVAACLPIDDVLRIQLLKIGSAIQRLRCELDIMNKCTSLCCKQCQETEITTKNEIFSLSLCGPMAAYVNPHGYVHETLTVYKACNLNLIGRPSTAHSWFPGYAWTVAQCKICASHIGWKFTATKKDMSPQKFWGLTRSALLPTIPDTEDEISPDKVILCL | – | no binding | –
5 | human CRBN E377V (other, UniProt Q96SW2 1-442, looked up) MAGEGDQQDAAHNMGNHLPLLPAESEEEDEMEVEDQDSKEAKKPNIINFDTSLPTSHTYLGADMEEFHGRTLHDDDSCQVIPVLPQVMMILIPGQTLPLQLFHPQEVSMVRNLIQKDRTFAVLAYSNVQEREAQFGTTAEIYAYREEQDFGIEIVKVKAIGRQRFKVLELRTQSDGIQQAKVQILPECVLPSTMSAVQLESLNKCQIFPSKPVSREDQCSYKWWQKYQKRKFHCANLTSWPRWLYSLYDAETLMDRIKKQLREWDENLKDDSLPSNPIDFSYRVAACLPIDDVLRIQLLKIGSAIQRLRCELDIMNKCTSLCCKQCQETEITTKNEIFSLSLCGPMAAYVNPHGYVHETLTVYKACNLNLIGRPSTVHSWFPGYAWTVAQCKICASHIGWKFTATKKDMSPQKFWGLTRSALLPTIPDTEDEISPDKVILCL | – | no binding | –
6 | human CRBN H357A (other, UniProt Q96SW2 1-442, looked up) MAGEGDQQDAAHNMGNHLPLLPAESEEEDEMEVEDQDSKEAKKPNIINFDTSLPTSHTYLGADMEEFHGRTLHDDDSCQVIPVLPQVMMILIPGQTLPLQLFHPQEVSMVRNLIQKDRTFAVLAYSNVQEREAQFGTTAEIYAYREEQDFGIEIVKVKAIGRQRFKVLELRTQSDGIQQAKVQILPECVLPSTMSAVQLESLNKCQIFPSKPVSREDQCSYKWWQKYQKRKFHCANLTSWPRWLYSLYDAETLMDRIKKQLREWDENLKDDSLPSNPIDFSYRVAACLPIDDVLRIQLLKIGSAIQRLRCELDIMNKCTSLCCKQCQETEITTKNEIFSLSLCGPMAAYVNPHGYVAETLTVYKACNLNLIGRPSTEHSWFPGYAWTVAQCKICASHIGWKFTATKKDMSPQKFWGLTRSALLPTIPDTEDEISPDKVILCL | – | no binding | –
